Laboratory results taken from a protein production outcome set (Wang et al. 2014).

Assay: label from the status in PepcDB records

Row | Sequence | protein production
1 | MLGKSQKDDHKTTFNKHKKTFSIIVAIKDESKQVIESLVENLKRINYERYEVIIVSDDDESKFREYLEIKFPENFRLIRRESNSGGKAGALNFASRISKGDYLVFMDADARVNEDFLQRLNNKDYVACSLKIIIYDTSTSIQSYYAEFTEKVMDMMFKGRSKLGLPIFPNGSAFSIRRDTLLSIGGWKENAIAEDLELGIRMYLNDLKNLFYDDVVVFLKSPYTLMDLYNQIQRWSYGSSQLLKSSLKLLKKGIKGFEGLLYSQQWVIYPLFFTVLGVYGILTPVFNITQTYLLLLILIYGISVVFYSQVLNQKRVDIKILKTILDASITGYLKGLFGLKYKWRVTPKILDKGGRLIEDNNIPLISIPFYLISFFDASMGFVLSSIVILLVALIESF | failed
2 | MRGKQSHMSCEHYSNNCLVRFECCSSLYPCRLCHDKAEAHRANRYEVSQIVCGTCNLLQPKTQTCLQCLAAVSKYFCSKCNLWDSSDDQIFHCDGCNVCRRGDPKSSFHCDICQTCLVTRGPRDHTHVENTASGNCPICAEEMSESMEVLVLLRCGHSLHERCFNEFIKETYTCPMCSKPIGDTSIINRKVECLLGMEPPSPEQSPKNIAKCTNCNNLSKCGAIQNKCPFCGLRGVVDAAQEKNVKSQCLKPEE | failed
3 | MTQETALGAALKSAVQTMSKKKQTEMIADHIYGKYDVFKRFKPLALGIDQDLIAALPQYDAALIARVLANHCRRPRYLKALARGGKRFDLNNRFKGEVTPEEQAIAQNHPFVQQALQQQSAQAAAETLSVEAEAAESSAAE | not failed
4 | STGNAGEWCLMESDPGVFTELIKGFGCRGAQVEEIWSLEPENFEKLKPVHGLIFLFKWQPGEEPAGSVVQDSRLDTIFFAKQVINNACATQAIVSVLLNCTHQDVHLGETLSEFKEFSQSFDAAMKGLALSNSDVIRQVHNSFARQQMFEFDTKTSAKEEDAFHFVSYVPVNGRLYELDGLREGPIDLGACNQDDWISAVRPVIEKRIQKYSEGEIRFNLMAIVSDRKMIYEQKIAELQRQLAEEPMDTDQGNSMLSAIQSEVAKNQMLIEEEVQKLKRYKIENIRRKHNYLPFIMELLKTLAEHQQLIPLVEKAKEKQNAKKAQETK | not failed
5 | MNKLSEKNTTRLASLDILRGFDLFLLVFFQPVFAALVRQLNLPFLNDILYQFDHEVWEGFRFWDLVMPLFLFMTGASMPFSLSKYVGMSGSYWLVYRRILRRVFLLFIFGMIVQGNLLGLDSSHIYLYSNTLQSIAVGYLIAAVIQLHFSFRWQIGITLLLLFIYWIPMTFLGDFTPAGNFAEQVDRCVLGRFRDGVFWNEDGTWSFSPYYNYTWIWSSLTFGVTVMLGAFAGKIMKEGKANRKKVVQTLSVIGVLLVGLAMLWSLQMPIIKRLWTGSMTLLSGGYCFLLMALFYYWIDYKGHSRGLNWLKVYGMNSITAYLLGEVVNFRCIADSVSYGLKQYIGDYYPVWLTFANYLILFFLLRMMYKRGLFLKV | failed
6 | MFKNVKKSVTRTIASAMLLILLLSVATTGFAIFTLASSLNDAEAVNVAGSMRMQSYRLAHDIQIRSVDYSSHIDAFEHSIYSSSMKALQHWSVPEDITHDYYRLIMRWHELKSVLRGEDPSQYQLLVAGFVQQIDDFVFKLQNFSEQKLINLAWIGGLGLGGILCASMFVVHFIRLEVVRPLRALVFASERIKNRSFDINLAVSSDNEMGILTRTFNRMATDLGKLYRGLEQAVDEKTRKLQHANQSLEVLYDSSKELTASRINQDNFQAILKHIASLEGIKAVKLEIEQLGEPNWILTEGEECCHDCDDECHAEPLTLDGEHLGSLYWKAGLPCPNETLIDNFVQILSRAVYYNRAQRQAEQILLMEERATIARELHDSLAQALSYLKIQVALLKRSVKNLPDEKAIAQANQVIAELDTGLSAAYTQLRELLTTFRLTIKEGSFGQALQEMVETLNEQTTAEITLKNRLSSTELDAHQQVHLLQLIREAALNAIKHAQADHIHIQCLDCDGKVTVTVSDDGVGFEHQDEKINHYGMTIMQERAARLHADLQIEASINKGCTVKLEFQHSKEVNFDSV | failed
7 | MAKTPAAAPTATDPVAIAGPAPETIAVHGHRIACDGVGGALGHPRVWLEMGAAGFVDCPYCDRRFVAATDAGHDEHLAPGVYVDAAGHLEHHHHHH | failed
8 | MLTTRLLISQRGRIAMKQVHLLTPVAGQLVPLESVHDPVFSQGMMGQGFGIEPTDGQVVAPISGKVTMVAASLHAIGFTGNNGLEVLVHLGIDTVELADRPPFKVNVQVGDTVEAGEKVAMMDLAAITSANKDTTVIMAVTNTADMVTKLTPELGEVRAGVVGAVVELKEHVAEASVVKGKGGKYDELATQIIAQVGGPVNVKSVIHCITRVRFYLKDEGQANDEAIRNLKGVIDVAKAGGQYQVVIGPAVTDVYDAIVGQLGAGFGDADASAVAMEKEANRLAWQKMTPWQKVKHGFSSLIGVITGSMIPVIGLLAASGILKGILSLLKNFNLVSATTPTYVIINAMGDSVFYFLPIFVGFTAAKKLGADPVIMGIIGGVLTYPAIVGMATTGKVTGHLLGMAINANFFGIPVHVASYTYSIFPMIAGAWLASKLEPWLKRVIPTVLRMIFVPLFEVVIISGAIIIILGPIITALSGALAAGIVAIYKLSPAISGLIIGGFYQVLVIFGLHWAIIPIVVNDITTTGHSYLNAIVSATMVAQGGAVLAIALKSKFANIKELAWPATISAFCGVTEPAMYGINLKYGRAFITASIGGAVGGFLTGLFNVNMWGFAGSLIGVTSFINPKGLDFSFYGFLIASAIDLIVAFTLTWMFGFSDNDVKNVKKAPEKKHLGQQVAN | failed
9 | MIIPTVPTTDELLDKGFRRARKAASLKRSSKIPGQKKAKVIESTRVQTACQVIRDRLKMIIQRIPDIESLPEFYQDYIDVTVGVDELKKSLGALNWAVGILNQLESDYMARIKRSKPSDASHLRREAFGRISSVIKRIEGDLDFLDFAKNKLRNMPTVDLDAFTVVIAGFPNVGKSTLLRTLTGAEPEVADYPFTTKGIQIGHLERKWKRIQVIDTPGLLDRPVEDMNNIELQAMVALENIADVIMFIFDASETCGYTLESQYSLYLGIRSVFDIPVVTVFNKMDLAENVKYLEEYINMVEDPLKVSAFEGRGVSKIIKKLEGLYEKETREAHDNV | failed
10 | MQQSEHFSFGEQTEIEDIGGGLKRQMLGFNHELMAVKIWFDKGAEGYVHAHRHSQVSYVVEGEFHVNVDGVIKVLTAGDSFFVPPHVDHGAVCPTGGILIDTFSPAREDFVEGLS | not failed
11 | MRHFGPISGIATFKDTYVATAGYDNQVILWDARTRTPIQRVLHDHLANQCAFNAAGTLLVSASSDYTARVWEVPSLRLKTVLIGHDDDIEMAAFSPDGQTIATCSRDHSIRLFNLSGQTLRILHGHTADVISVCWSADGQTLVSSSDDGSIRRWDANTGQQLETIDLGGVETDTVALSREGIIFAGDDEGKISIISPRGTLLQPAHSAGIKRIIWDDSQRLLISLSYDRSVMLWHLKQDGTLVKTAETSLPSIIWPRSCALLGSHRIAFVTFGSRYATWDFATQTWDLSGIEPAVSLNAVAVVGEDVYSIGDAGILHINGQPSIKAGSLCNFLLPFGDSVLTGGQMGTVFDARTGATLYQHRSPLNCGTTFIKDGALHAAIGTYTGEALIFCLDQQQPRFVTQVRMHENAIKGIAADETYIFSVCATAAAAFFRIADFGLETYLDKAHERISNGCTQIQGGFASIGRDLKLRLWRDGASEVFDTPHSHSIKCIAISRDRSMIATGSYGGTVAVFDLKKRVWASVEKPTASGISCLIHDASGEGFLASAYDGRIYPITPRAAVQSARP | failed
12 | MGHHHHHHSHRGAGRVSRWPPPHWLEAWRVSPRPLSPLSPATFGRGFIAVAVIPGLWARGRGCSSDRLPRPAGPARRQFQAASLLTRGWGRAWPWKQILKELDECYERFSRETDGAQK | failed
13 | MTASTAPQTEPHKTSAPESGPVMLLVATIKGAWFLASDPARRTWELRGPVFLGHTIHHIVQDPREPERMLMAARTGHLGPTVFRSDDGGGNWTEATRPPAFNKAPEGETGRVVDHVFWLTPGHASEPGTWYAGTSPQGLFRSTDHGASWEPVAGFNDHPMRRAWTGGEQDGTPDGPKMHSILVDPRDPKHLYIGMSSGGVFESTDAGTDWKPLNRGCAANFLPDPNVEFGHDPHCVVQHPAAPDILYQQNHCGIYRMDRREGVWKRIGDAMPREVGDIGFPIVVHQRDPRTVWVFPMDGSDVWPRVSPGGKPAVYVTRDAGESWQRQDRGLPTDQAWLTVKRQAMTADAHAPVGVYFGTTGGEIWASADEGEHWQCIASHLPHIYAVQSARPV | not failed
14 | MKLLREMLIVVFIYFLGEFISKSFIHSVPGNIIGMLILLVLLCTKVVKVESIDCVAQFFLDHLAFFFVPAGVGLMTSVGLLEGNVLKLLFICIASTFVVIGVTGLVVQALIRRKEKKLLGDEVNE | failed
15 | MTVLRKQAREAGVYMKVVRNTLARRAVEGTEYECLTDTFTGPSLLAFSNEHPGAAARLFKDFAKENKDFEIKAAAFEGAVTDADVLATLPTYDEAIARLMMCMKEASAGKLVRTIAAVRDQKEEAAA | failed
16 | MNIILNGGPAELHGTTVADLIAQTAPQKPFAVAVNTVFVPKGAYAETVLNENDKIDIVRPVVGG | failed
17 | MSQSLIAALQNPALFPHPVESFQVIETHISWVLLTGPYAYKFKKPMNFGFLDFTTLALREHFCQEELRLNKRLTDDMYLEVLPITGTAQAPQLGGDGDVIEYALKMKQFSQDGLLSTLQANGELTTAHIDELARQIADFHLDSPHVTAESELGSPDSVMAPVVQNFEQIRPLISEKSDLEQLDALQAWAESSFERLKPLLAQRKADGFIRECHGDIHLGNATVIDGKVVLFDCIEFNEPFRKTDVYADIGFLAMDLEDRGLKSLSRRLVSQYLEVTGDYVGLELLNFYKAYRAMVRAKVALFSQPADADGVQRAATLRQYRNYANLAESYSAIPSRFLTITHGVSAVGKSHVAMRLVESLGAIRLRSDIERKRLFAEGGEDLYGDEASSATYARLHELAGKTLRAGFSVVIDATYLKREQRDAAAKVAENTGVPFLILDCEAPQAVIASWLAQRQAQNNDPSDATLQVIEAQQASRELLSADEVLCSKKVATNIGSDLDSLVDNLRQRLPGLLEHHHHHH | not failed
18 | MTDTRPAQSLGPGLQPETRSLGDEPVRLVDTTMLYAPRSGGVRRYLSSKRAWLASHRPDVRHTLVVPGARDFHDGRGQVSIYAAPLPFGAGYRWPVVKQTWMERLIRQQPDLIEAGDPYTPGLAALRAGDALGVPVVGFCHTDLGKLAALHIGDWAEKPVQKRWAAIYRQFDQAVAPSRFIAGRLIEAGVRDAIGLPLGVDTAIFHPERGDRDGLRRRLGLSPKDRLLVFAGRPAREKKLDVLVAAVERLGDPYKLLFVGAGGGAPVSDRTLCIDYVRDPVELASILASCDAFVHANDNEPFGLIVLEAMACGLPVVGVSAGGVAESVDAAVGQLAVASEATAFADAIEALFERDVTVVGEAARRRAVERHGWDAVFTELCLIYDRLTGRRAFSSASAHAGH | failed
19 | MDIDLSAFHFLRPWWLLAVPLAALLWWARRGERGAPGRDLRIAPALLPYLVLRTPGSRGPRPIDALALFLALGGVAAAGPAWQRDEPAYLDNVAPLIVALDLSASMDGADVPPTRLEAARRVLRDLAARRAAARTGLIAYAGSSHLVLPPTDDAALLDLFAQALATGLIERPGRDADGAIALAAQALAAERAGGTLLILTDGADRARMDAVRRQAQAARDMQVLVMAVGVNGIDTQALQELARAAGAALGSLTGGPDDQDWIALHAQAHFRAVQDAQSGPVHWKDAGYWLCWPLALLALLAVRRGWSVAWSAGVLVVAMAGMPQPARADALADAFLTADQQGRRAFEHGRYDAAARHFHDPNWKGRAAYQAGDYRAALAAFSTLPSAEGYFYVGNTQTRLHRYDAALAAYDRALALRPGWQPAVVNRGIVARLLAAMAQTQQDQPAEPPDRTIADRSAQAGKMSQAPVAQAGSEEAWLRNLTLSPARFLRSKFAVEDAAAGTRP | failed
